Data on 3 substances can be found in publication PMC4900187.

MAIM1-derivatized MCL-1ΔNΔC, sequence (Q07820 172-327, stated change not applied): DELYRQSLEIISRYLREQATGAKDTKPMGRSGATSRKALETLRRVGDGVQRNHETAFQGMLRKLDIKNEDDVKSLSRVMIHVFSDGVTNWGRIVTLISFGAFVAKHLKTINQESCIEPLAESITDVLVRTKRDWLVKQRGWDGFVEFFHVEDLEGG
MCL-1ΔNΔC, sequence (Q07820 172-327, stated change not applied): as above

This assay deals with FITC–BID BH3. Description: fluorescence polarisation.
With “MAIM1-derivatized MCL-1ΔNΔC (from UniProt Q07820 172-327) (domain or fragment)”, the EC50 was 85 nM.

“MCL-1ΔNΔC (from UniProt Q07820 172-327) (domain or fragment)” gave an EC50 of 21 nM. The value for “MCL-1ΔNΔC C286W (from UniProt Q07820 172-327) (domain or fragment)” was 109 nM.
